Earlier results as cited in publication doi:10.1101/2025.09.24.678334.

Biological target: TATA-binding protein (Homo sapiens) (UniProt P20226)
Chain of UniProt P20226 (P20226 whole entry): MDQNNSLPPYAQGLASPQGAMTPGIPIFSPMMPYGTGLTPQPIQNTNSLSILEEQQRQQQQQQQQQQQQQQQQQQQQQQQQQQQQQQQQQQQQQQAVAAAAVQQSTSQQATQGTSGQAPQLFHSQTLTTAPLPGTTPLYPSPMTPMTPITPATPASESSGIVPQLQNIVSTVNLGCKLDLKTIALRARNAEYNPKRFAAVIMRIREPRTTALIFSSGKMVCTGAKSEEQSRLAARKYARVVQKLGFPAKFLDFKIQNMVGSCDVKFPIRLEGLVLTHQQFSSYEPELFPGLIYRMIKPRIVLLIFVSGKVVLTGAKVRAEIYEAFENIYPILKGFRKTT

Question: With Importin 9 (from UniProt Q96P70) as the substance, how does the Kd read?
Answer: 1 nM
